Data: patent US20200109188A1 (AstraZeneca / MedImmune, published 2020)
Changes are numbered by the printed parent chain.

B1: Antibody 11 (antibody, V domains shown)
VH: QVQLQQSGPGLVKPSQTLSLTCAISGDSVSSYNAVWNWIRQSPSRGLEWLGRTYYRSGWYNDYAESVKSRITINPDTSKNQFSLQLNSVTPEDTAVYYCARSGHITVFGVNVDAFDMWGQGTMVTVSS
VL: DIQMTQSPSSLSASVGDRVTITCRTSQSLSSYTHWYQQKPGKAPKLLIYAASSRLSGVPSRFSGSGSGTDFTLTISSLQPEDFATYYCQQSRTFGQGTKVEIK
B2: Antibody 15 (antibody, V domains shown)
VH: B1 VH with Y32N, G58K, M123T
VL: B1 VL with L55G
B3: Antibody 14 (antibody, V domains shown)
VH: B1 VH with Y32N, G58K, M123T
VL: B1 VL
B4: Antibody 13 (antibody, V domains shown)
VH: B1 VH
VL: B1 VL with T33D
B5: Antibody 12 (antibody, V domains shown)
VH: B1 VH
VL: B1 VL with L55G

Experiments:
[1] = target: HA of ca A/Hong Kong/213/03 (H5N1) virus (influenza A virus); experiment: cell-based or functional assay
[2] = target: HA of ca A/teal/Hong Kong/W312/97 (H6N1) virus (influenza A virus); experiment: cell-based or functional assay
[3] = target: HA of ca A/mallard/Alberta/89/85 (H6N2) virus (influenza A virus); experiment: cell-based or functional assay
[4] = target: HA of ca A/Netherlands/219/03 (H7N7) virus (influenza A virus); experiment: cell-based or functional assay
[5] = target: HA of ca A/Japan/57 (H2N2) virus (influenza A virus); experiment: cell-based or functional assay
[6] = target: HA of A/New Jersey/8/76 (H1N1) virus (influenza A virus); experiment: cell-based or functional assay
[7] = target: HA of ca A/swine/Missouri/06 (H2N3) virus (influenza A virus); experiment: cell-based or functional assay
[8] = target: HA of ca A/chicken/Hong Kong/G9/97 (H9N2) virus (influenza A virus); experiment: cell-based or functional assay
[9] = target: HA of ca A/Vietnam/1203/04 (H5N1) virus (influenza A virus); experiment: cell-based or functional assay
[10] = target: HA of ca A/Brit. Columbia/CN-6/04 (H7N3-LP) virus (influenza A virus); experiment: cell-based or functional assay
[11] = target: HA of ca A/Anhui/1/13 (H7N9) virus (influenza A virus); experiment: cell-based or functional assay
[12] = target: HA subtype H14 (A/mallard/Astrakhan/263/82 (H14N5)) on HEK cells (influenza A virus, UniProt P26136 18-568); experiment: flow cytometry, HA-transfected HEK cells, 5 ug/ml antibody
[13] = target: HA subtype H4 (A/duck/Czechoslovakia/56 (H4N6)) on HEK cells (influenza A virus, UniProt P19696 17-564); experiment: as above
[14] = target: HA subtype H12 (A/duck/Alberta/60/76 (H12N5)) on HEK cells (influenza A virus, UniProt P03446 17-564); experiment: as above
[15] = target: HA subtype H13 (A/gull/Maryland/704/77 (H13N6)) on HEK cells (influenza A virus, UniProt P13103 19-566); experiment: as above
[16] = target: HA subtype H10 (A/chicken/Germany/N49 (H10N7)) on HEK cells (influenza A virus, UniProt P12581 17-561); experiment: as above

Binder | Neutralization IC50, H5-HK03 [1] [µg/mL] | Neutralization IC50, H6-HK97 [2] [µg/mL] | Neutralization IC50, H6-AB85 [3] [µg/mL] | Neutralization IC50, H7-NLD03 [4] [µg/mL] | Neutralization IC50, H2-JP57 [5] [µg/mL] | Neutralization IC50, H1-NJ76 [6] [µg/mL] | Neutralization IC50, H2-MO06 [7] [µg/mL] | Neutralization IC50, H9-HK97 [8] [µg/mL] | Neutralization IC50, H5-VM04 [9] [µg/mL] | Neutralization IC50, H7-BC04 [10] [µg/mL] | Neutralization IC50, H7-ANU13 [11] [µg/mL] | binding result [12] | binding result [13] | binding result [14] | binding result [15] | binding result [16]
B1 | 0.21 | 0.4 | 0.24 | 0.94 | 0.31 | 0.13 | 0.6 | 0.36 | 0.57 | 0.71 |  |  |  |  |  | 
B2 | 0.05 | 0.33 | 0.19 | 1.3 | 0.33 | 0.25 | 0.83 | 0.35 | 0.28 | 1.25 |  |  |  |  |  | 
B3 | 0.21 | 0.26 | 0.26 | 1.16 | 0.67 | 0.11 | 0.65 | 0.44 | 0.33 | 0.86 | 2.12 |  |  |  |  | 
B4 | 0.17 | 0.55 | 0.29 | 2.45 | 0.47 | 0.12 | 0.57 | 0.29 | 0.56 | 0.96 |  |  |  |  |  | 
B5 | 0.17 | 0.45 | 0.32 | 0.83 | 0.35 | 0.12 | 0.53 | 0.31 | 0.31 | 0.78 | 2.56 | binds | binds | binds | binds | binds
